According to US20050106141A1 (PROCTER AND GAMBLE, published 2005):

T1: LexA BD-HRt (mouse, UniProt P0A7C2 1-202; Q61645 490-1182)
T1 construct: domain: Lex A DNA BD;range 490-1182; also called BD-HRt(mouse); Lex A DNA BD-HRt
T1 sequence (looked up): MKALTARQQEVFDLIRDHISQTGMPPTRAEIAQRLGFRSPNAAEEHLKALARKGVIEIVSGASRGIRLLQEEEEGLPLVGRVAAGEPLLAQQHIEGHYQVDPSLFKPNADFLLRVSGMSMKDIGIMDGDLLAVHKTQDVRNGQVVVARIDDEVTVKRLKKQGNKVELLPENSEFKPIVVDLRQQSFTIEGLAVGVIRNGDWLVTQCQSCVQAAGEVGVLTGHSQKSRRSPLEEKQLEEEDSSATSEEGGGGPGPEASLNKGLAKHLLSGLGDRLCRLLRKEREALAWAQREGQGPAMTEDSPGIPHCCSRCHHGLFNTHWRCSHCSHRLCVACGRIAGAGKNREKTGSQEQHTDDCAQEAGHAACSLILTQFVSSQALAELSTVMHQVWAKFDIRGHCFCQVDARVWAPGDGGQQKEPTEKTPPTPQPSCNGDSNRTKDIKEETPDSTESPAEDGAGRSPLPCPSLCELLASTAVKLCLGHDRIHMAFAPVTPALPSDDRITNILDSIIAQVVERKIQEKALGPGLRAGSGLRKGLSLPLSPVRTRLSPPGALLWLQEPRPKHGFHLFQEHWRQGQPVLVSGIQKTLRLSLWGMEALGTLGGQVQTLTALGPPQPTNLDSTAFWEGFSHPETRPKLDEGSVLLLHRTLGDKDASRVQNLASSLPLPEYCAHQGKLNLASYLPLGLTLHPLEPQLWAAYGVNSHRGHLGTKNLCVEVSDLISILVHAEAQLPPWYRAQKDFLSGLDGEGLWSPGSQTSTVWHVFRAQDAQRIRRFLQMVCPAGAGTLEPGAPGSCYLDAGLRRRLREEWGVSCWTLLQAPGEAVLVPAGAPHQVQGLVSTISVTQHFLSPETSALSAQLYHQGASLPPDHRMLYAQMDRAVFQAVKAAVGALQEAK

B1: Homo Sapiens Thyroid Hormone Receptor Alpha (receptor, UniProt P10827-2 1-410, looked up, not shown: large carriers)
chain: MEQKPSKVECGSDPEENSARSPDGKRKRKNGQCSLKTSMSGYIPSYLDKDEQCVVCGDKATGYHYRCITCEGCKGFFRRTIQKNLHPTYSCKYDSCCVIDKITRNQCQLCRFKKCIAVGMAMDLVLDDSKRVAKRKLIEQNRERRRKEEMIRSLQQRPEPTPEEWDLIHIATEAHRSTNAQGSHWKQRRKFLPDDIGQSPIVSMPDGDKVDLEAFSEFTKIITPAITRVVDFAKKLPMFSELPCEDQIILLKGCCMEIMSLRAAVRYDPESDTLTLSGEMAVKREQLKNGGLGVVSDAIFELGKSLSAFNLDDTEVALLQAVLLMSTDRSGLLCVDKIEKSQEAYLLAFEHYVNHRKHNIPHFWPKLLMKVTDLRMIGACHASRFLHMKVECPTELFPPLFLEVFEDQEV
notes: Prey clone; extent of the clone unknown; also called AD-IP; BC000261
B2: Homo Sapiens Annexin A1 (Lipocortin 1 or P35) (other, UniProt P04083 1-346, looked up, not shown: large carriers)
chain: MAMVSEFLKQAWFIENEEQEYVQTVKSSKGGPGSAVSPYPTFNPSSDVAALHKAIMVKGVDEATIIDILTKRNNAQRQQIKAAYLQETGKPLDETLKKALTGHLEEVVLALLKTPAQFDADELRAAMKGLGTDEDTLIEILASRTNKEIRDINRVYREELKRDLAKDITSDTSGDFRNALLSLAKGDRSEDFGVNEDLADSDARALYEAGERRKGTDVNVFNTILTTRSYPQLRRVFQKYTKYSKHDMNKVLDLELKGDIEKCLTAIVKCATSKPAFFAEKLHQAMKGVGTRHKALIRIMVSRSEIDMNDIKAFYQKMYGISLCQAILDETKGDYEKILVALCGGN
notes: Prey clone; extent of the clone unknown; also called AD-IP; BC001275
B3: Homo Sapiens Keratin 5 (other, UniProt P13647 1-590, looked up, not shown: large carriers)
chain: MSRQSSVSFRSGGSRSFSTASAITPSVSRTSFTSVSRSGGGGGGGFGRVSLAGACGVGGYGSRSLYNLGGSKRISISTSGGSFRNRFGAGAGGGYGFGGGAGSGFGFGGGAGGGFGLGGGAGFGGGFGGPGFPVCPPGGIQEVTVNQSLLTPLNLQIDPSIQRVRTEEREQIKTLNNKFASFIDKVRFLEQQNKVLDTKWTLLQEQGTKTVRQNLEPLFEQYINNLRRQLDSIVGERGRLDSELRNMQDLVEDFKNKYEDEINKRTTAENEFVMLKKDVDAAYMNKVELEAKVDALMDEINFMKMFFDAELSQMQTHVSDTSVVLSMDNNRNLDLDSIIAEVKAQYEEIANRSRTEAESWYQTKYEELQQTAGRHGDDLRNTKHEISEMNRMIQRLRAEIDNVKKQCANLQNAIADAEQRGELALKDARNKLAELEEALQKAKQDMARLLREYQELMNTKLALDVEIATYRKLLEGEECRLSGEGVGPVNISVVTSSVSSGYGSGSGYGGGLGGGLGGGLGGGLAGGSSGSYYSSSSGGVGLGGGLSVGGSGFSASSGRGLGVGFGSGGGSSSSVKFVSTTSSSRKSFKS
notes: Prey clone of the human keratinocyte AD-cDNA library; whole protein named, extent of the clone unknown; also called AD-IP; BC024292
B4: Homo Sapiens Retinoic Acid Receptor Gamma-1 (receptor, UniProt P13631 1-454, looked up, not shown: large carriers)
chain: MATNKERLFAAGALGPGSGYPGAGFPFAFPGALRGSPPFEMLSPSFRGLGQPDLPKEMASLSVETQSTSSEEMVPSSPSPPPPPRVYKPCFVCNDKSSGYHYGVSSCEGCKGFFRRSIQKNMVYTCHRDKNCIINKVTRNRCQYCRLQKCFEVGMSKEAVRNDRNKKKKEVKEEGSPDSYELSPQLEELITKVSKAHQETFPSLCQLGKYTTNSSADHRVQLDLGLWDKFSELATKCIIKIVEFAKRLPGFTGLSIADQITLLKAACLDILMLRICTRYTPEQDTMTFSDGLTLNRTQMHNAGFGPLTDLVFAFAGQLLPLEMDDTETGLLSAICLICGDRMDLEEPEKVDKLQEPLLEALRLYARRRRPSQPYMFPRMLMKITDLRGISTKGAERAITLKMEIPGPMPPLIREMLENPEMFEDDSSQPGPHPNASSEDEVPGGQGKGGLKSPA
notes: Prey clone; extent of the clone unknown; also called Human Retinoic Acid Receptor Gamma 1; AD-IP
B5: Homo Sapiens Insulin-like Growth Factor Binding Domain Protein 6 (other, UniProt P24592 28-240, looked up, not shown: large carriers)
chain: RCPGCGQGVQAGCPGGCVEEEDGGSPAEGCAEAEGCLRREGQECGVYTPNCAPGLQCHPPKDDEAPLRALLLGRGRCLPARAPAVAEENPKESKPQAGTARPQDVNRRDQQRNPGTSTTPSQPNSAGVQDTEMGPCRRHLDSVLQQLQTEVYRGAQTLYVPNCDHRGFYRKRQCRSSQGQRRGPCWCVDRMGKSLPGSPDGNGSSSCPTGSSG
notes: Prey clone; extent of the clone unknown; also called AD-IP
B6: Homo Sapiens Inner Membrane Protein, Mitochondrial (Mitofilin) (other, UniProt Q16891 1-758, looked up, not shown: large carriers)
chain: MLRACQLSGVTAAAQSCLCGKFVLRPLRPCRRYSTSGSSGLTTGKIAGAGLLFVGGGIGGTILYAKWDSHFRESVEKTIPYSDKLFEMVLGPAAYNVPLPKKSIQSGPLKISSVSEVMKESKQPASQLQKQKGDTPASATAPTEAAQIISAAGDTLSVPAPAVQPEESLKTDHPEIGEGKPTPALSEEASSSSIRERPPEEVAARLAQQEKQEQVKIESLAKSLEDALRQTASVTLQAIAAQNAAVQAVNAHSNILKAAMDNSEIAGEKKSAQWRTVEGALKERRKAVDEAADALLKAKEELEKMKSVIENAKKKEVAGAKPHITAAEGKLHNMIVDLDNVVKKVQAAQSEAKVVSQYHELVVQARDDFKRELDSITPEVLPGWKGMSVSDLADKLSTDDLNSLIAHAHRRIDQLNRELAEQKATEKQHITLALEKQKLEEKRAFDSAVAKALEHHRSEIQAEQDRKIEEVRDAMENEMRTQLRRQAAAHTDHLRDVLRVQEQELKSEFEQNLSEKLSEQELQFRRLSQEQVDNFTLDINTAYARLRGIEQAVQSHAVAEEEARKAHQLWLSVEALKYSMKTSSAETPTIPLGSAVEAIKANCSDNEFTQALTAAIPPESLTRGVYSEETLRARFYAVQKLARRVAMIDETRNSLYQYFLSYLQSLLLFPPQQLKPPPELCPEDINTFKLLSYASYCIEHGDLELAAKFVNQLKGESRRVAQDWLKEARMTLETKQIVEILTAYASAVGIGTTQVQPE
notes: Prey clone; extent of the clone unknown; also called AD-IP; BC002412
B7: Homo Sapiens Protein Inhibitor of Activated STAT-3 (PIAS3) (other, UniProt Q9Y6X2 1-628, looked up, not shown: large carriers)
chain: MAELGELKHMVMSFRVSELQVLLGFAGRNKSGRKHELLAKALHLLKSSCAPSVQMKIKELYRRRFPRKTLGPSDLSLLSLPPGTSPVGSPGPLAPIPPTLLAPGTLLGPKREVDMHPPLPQPVHPDVTMKPLPFYEVYGELIRPTTLASTSSQRFEEAHFTFALTPQQVQQILTSREVLPGAKCDYTIQVQLRFCLCETSCPQEDYFPPNLFVKVNGKLCPLPGYLPPTKNGAEPKRPSRPINITPLARLSATVPNTIVVNWSSEFGRNYSLSVYLVRQLTAGTLLQKLRAKGIRNPDHSRALIKEKLTADPDSEVATTSLRVSLMCPLGKMRLTVPCRALTCAHLQSFDAALYLQMNEKKPTWTCPVCDKKAPYESLIIDGLFMEILSSCSDCDEIQFMEDGSWCPMKPKKEASEVCPPPGYGLDGLQYSPVQGGDPSENKKKVEVIDLTIESSSDEEDLPPTKKHCSVTSAAIPALPGSKGVLTSGHQPSSVLRSPAMGTLGGDFLSSLPLHEYPPAFPLGADIQGLDLFSFLQTESQHYGPSVITSLDEQDALGHFFQYRGTPSHFLGPLAPTLGSSHCSATPAPPPGRVSSIVAPGGALREGHGGPLPSGPSLTGCRSDIISLD
notes: Prey clone; extent of the clone unknown; also called AD-IP; BC030556
B8: Homo Sapiens Nucleoporin 160 Kda (other, UniProt Q12769 1-1436, looked up, not shown: large carriers)
chain: MLHLSAAPPAPPPEVTATARPCLCSVGRRGDGGKMAAAGALERSFVELSGAERERPRHFREFTVCSIGTANAVAGAVKYSESAGGFYYVESGKLFSVTRNRFIHWKTSGDTLELMEESLDINLLNNAIRLKFQNCSVLPGGVYVSETQNRVIILMLTNQTVHRLLLPHPSRMYRSELVVDSQMQSIFTDIGKVDFTDPCNYQLIPAVPGISPNSTASTAWLSSDGEALFALPCASGGIFVLKLPPYDIPGMVSVVELKQSSVMQRLLTGWMPTAIRGDQSPSDRPLSLAVHCVEHDAFIFALCQDHKLRMWSYKEQMCLMVADMLEYVPVKKDLRLTAGTGHKLRLAYSPTMGLYLGIYMHAPKRGQFCIFQLVSTESNRYSLDHISSLFTSQETLIDFALTSTDIWALWHDAENQTVVKYINFEHNVAGQWNPVFMQPLPEEEIVIRDDQDPREMYLQSLFTPGQFTNEALCKALQIFCRGTERNLDLSWSELKKEVTLAVENELQGSVTEYEFSQEEFRNLQQEFWCKFYACCLQYQEALSHPLALHLNPHTNMVCLLKKGYLSFLIPSSLVDHLYLLPYENLLTEDETTISDDVDIARDVICLIKCLRLIEESVTVDMSVIMEMSCYNLQSPEKAAEQILEDMITIDVENVMEDICSKLQEIRNPIHAIGLLIREMDYETEVEMEKGFNPAQPLNIRMNLTQLYGSNTAGYIVCRGVHKIASTRFLICRDLLILQQLLMRLGDAVIWGTGQLFQAQQDLLHRTAPLLLSYYLIKWGSECLATDVPLDTLESNLQHLSVLELTDSGALMANRFVSSPQTIVELFFQEVARKHIISHLFSQPKAPLSQTGLNWPEMITAITSYLLQLLWPSNPGCLFLECLMGNCQYVQLQDYIQLLHPWCQVNVGSCRFMLGRCYLVTGEGQKALECFCQAASEVGKEEFLDRLIRSEDGEIVSTPRLQYYDKVLRLLDVIGLPELVIQLATSAITEAGDDWKSQATLRTCIFKHHLDLGHNSQAYEALTQIPDSSRQLDCLRQLVVVLCERSQLQDLVEFPYVNLHNEVVGIIESRARAVDLMTHNYYELLYAFHIYRHNYRKAGTVMFEYGMRLGREVRTLRGLEKQGNCYLAALNCLRLIRPEYAWIVQPVSGAVYDRPGASPKRNHDGECTAAPTNRQIEILELEDLEKECSLARIRLTLAQHDPSAVAVAGSSSAEEMVTLLVQAGLFDTAISLCQTFKLPLTPVFEGLAFKCIKLQFGGEAAQAEAWAWLAANQLSSVITTKESSATDEAWRLLSTYLERYKVQNNLYHHCVINKLLSHGVPLPNWLINSYKKVDAAELLRLYLNYDLLEEAVDLVSEYVDAVLGKGHQYFGIEFPLSATAPMVWLPYSSIDQLLQALGENSANSHNIALSQKILDKLEDYQQKVDKATRDLLYRRTL
notes: Prey clone; extent of the clone unknown; also called Homo Sapiens Nucleoporin 160 kD (NUP160); AD-IP

What follows are binders tested against T1, LexA BD-HRt (assay: yeast two-hybrid library screen; number of positive clones with this identity).
Excerpt: Clontech Human Keratinocyte GAL4 cDNA library (complexity 2.5×10⁶) in pACT2 vector was used used to screen for HRt interacting proteins. A Leu⁻, Trp⁻ yeast strain with HIS3 and LACZ reporters for yeasts two hybrid interaction (strain L41) was first transformed with LexA BD-HRt palsmid) for Trp⁺ phenotype. The resulting L41/LexA BD-HR transformant was screened to ensure expression of LexA BD-HRt protein and also for lack of auto activation of the reporter genes HIS3 and LACZ. This strain was transformed with Keratinocyte AD-cDNA library and plated on Trp⁻Leu⁻His⁻ plate to select for clones with positive interaction. Colonies that appeared on selsctive plates were subsequently tested for LACZ expression on X-GAL plates. […] AD-plasmid was rescued from the 90 clones and retested for HRt bait dependance. […] The positive clones are expected to contain an AD-IP (interacting partner) that interacts with BD-HRt.
B1 showed a Hits of 7. Binder B2 has a Hits of 1. B3 was tested, and the Hits was 1. For B4, the Hits was 1. Binder B5 has a Hits of 1. With B6 the Hits was 3. With B7 the Hits was 1. B8 showed a Hits of 3.
